Source: patent US20040013647A1

Target: 508F(Fv)-CBD (508 scFv mutant C96F fused to CBD) (Clostridium thermocellum) (UniProt Q06851)
Assay: competitive ELISA, soluble βAP(1-16) pre-incubated with 508F(Fv)-CBD before βAP coated wells

For “βAP(1-16), β-amyloid 1-16 amino acid peptide”, which IC50 is on record?
Its IC50 is 1000 nM.
